Reference: the Immune Epitope Database (IEDB)

What was measured:
HLA-A*69:01 = experiment: IEDB peptide-MHC binding, purified MHC/direct/fluorescence; filed as Kd, often an IC50 or EC50 that approximates it; ≥ and ≤ were set here for values at or beyond the usual limits of such assays
HLA-B*27:05 = experiment: as above; settings: source organism: Homo sapiens
HLA-A*23:01 = experiment: IEDB peptide-MHC binding, purified MHC/competitive/radioactivity; filed as Kd, often an IC50 or EC50 that approximates it; ≥ and ≤ were set here for values at or beyond the usual limits of such assays
HLA-A*24:02 = experiment: as above
HLA-A*29:02 = experiment: as above
HLA-A*03:01 [1] = experiment: as above; settings: source organism: Dengue virus 1 Brazil/97-11/1997
HLA-A*30:01 = experiment: as above
HLA-A*30:02 = experiment: as above
HLA-A*02:01 [2] = experiment: IEDB peptide-MHC binding, purified MHC/competitive/fluorescence; filed as Kd, often an IC50 or EC50 that approximates it; ≥ and ≤ were set here for values at or beyond the usual limits of such assays
HLA-A*11:01 = experiment: IEDB peptide-MHC binding, purified MHC/direct/fluorescence; filed as Kd, often an IC50 or EC50 that approximates it; ≥ and ≤ were set here for values at or beyond the usual limits of such assays
HLA-B*15:01 = experiment: as above
HLA-B*58:01 = experiment: as above; settings: source organism: SARS-CoV1
HLA-A*02:01 [3] = experiment: IEDB peptide-MHC binding, purified MHC/competitive/fluorescence; ≥ and ≤ were set here for values at or beyond the usual limits of such assays
HLA-A*01:01 = experiment: IEDB peptide-MHC binding, purified MHC/competitive/radioactivity; filed as Kd, often an IC50 or EC50 that approximates it; ≥ and ≤ were set here for values at or beyond the usual limits of such assays
HLA-A*26:01 = experiment: as above
HLA-B*07:02 = experiment: IEDB peptide-MHC binding, purified MHC/direct/fluorescence; filed as Kd, often an IC50 or EC50 that approximates it; ≥ and ≤ were set here for values at or beyond the usual limits of such assays
HLA-B*40:01 = experiment: as above
HLA-A*02:01 [4] = experiment: as above
HLA-A*31:01 = experiment: as above
HLA-A*03:01 [5] = experiment: as above; settings: source organism: Entamoeba histolytica HM-1:IMSS
[6] = source organism: Mammarenavirus guanaritoense
[7] = source organism: Dengue virus 1 Brazil/97-11/1997
[8] = source organism: Dengue virus 2 Jamaica/1409/1983
[9] = source organism: Vaccinia virus WR
[10] = source organism: Zaire ebolavirus
[11] = source organism: Vaccinia virus Copenhagen
[12] = source organism: Dengue virus 3 Martinique/1243/1999
[13] = source organism: Mammarenavirus brazilense
[14] = source organism: Mammarenavirus juninense
[15] = source organism: Dengue virus 4 Philippines/H241/1956
[16] = source organism: Dengue virus 2 Peru/IQT2913/1996
[17] = source organism: Vibrio cholerae
[18] = source organism: Bacillus anthracis
[19] = source organism: Pseudomonas aeruginosa

AHSTIMPRL
Kd (HLA-A*69:01; source organism: Homo sapiens): 0.832 µM | Kd (HLA-B*27:05): 8.62 µM

AIFFTTSLF
Kd (HLA-A*23:01; [6]): 0.246 µM | Kd (HLA-A*24:02; [6]): 1.21 µM | Kd (HLA-A*29:02; [6]): 0.274 µM

AIKVLRGFK
Kd (HLA-A*03:01 [1]): 0.119 µM | Kd (HLA-A*30:01; [7]): 0.501 µM

AKQPATLRKY
Kd (HLA-A*30:02; [8]): 5.24 µM

ALSALLTKL
Kd (HLA-A*02:01 [2]; source organism: Human alphaherpesvirus 1 strain 17): 0.313 µM

ASHFISNSW
Kd (HLA-A*11:01; source organism: SARS-CoV1): ≥ 53 µM | Kd (HLA-B*15:01; source organism: SARS-CoV1): 11.4 µM | Kd (HLA-B*58:01): 0.072 µM

ASKSLKPTK
Kd (HLA-A*30:01; [9]): 0.0151 µM

ASLFLPKLV
IC50 (HLA-A*02:01 [3]; [10]): 11.9 µM

ASTVIYRGT
IC50 (HLA-A*02:01 [3]; [10]): ≥ 222 µM

CLTEYILWV
Kd (HLA-A*02:01 [2]; [11]): 0.0107 µM

DLCGSVFLV
IC50 (HLA-A*02:01 [3]; source organism: Hepatitis C virus genotype 1): 5 µM

DWVPTSRTTW
Kd (HLA-A*23:01; [7]): 6.77 µM | Kd (HLA-A*24:02; [7]): 0.886 µM

EEALKGLPIR
Kd (HLA-A*30:01; [12]): 0.609 µM

EFFECFKYLL
Kd (HLA-A*23:01; [13]): 0.624 µM | Kd (HLA-A*24:02; [13]): 1.2 µM | Kd (HLA-A*29:02; [13]): 0.0327 µM

ESEIPNLDII
Kd (HLA-A*01:01; [8]): 7.19 µM

ETLEQMQRKH
Kd (HLA-A*26:01; [7]): 14 µM

ETTKKDLGI
Kd (HLA-A*26:01; [7]): ≥ 54.7 µM

FLADKKMTL
Kd (HLA-A*02:01 [2]; [9]): 0.0015 µM

FMSNGEHVP
IC50 (HLA-A*02:01 [3]; [9]): 57.6 µM

FPEHIFPAL
Kd (HLA-A*69:01; source organism: Mus musculus): 2.33 µM | Kd (HLA-B*07:02; source organism: Mus musculus): 0.937 µM | Kd (HLA-B*40:01; source organism: Mus musculus): 0.278 µM

FYQKTGEKS
Kd (HLA-A*01:01; [14]): ≥ 78.1 µM | Kd (HLA-A*24:02; [14]): ≥ 58.7 µM | Kd (HLA-A*26:01; [14]): ≥ 77.9 µM | Kd (HLA-A*30:02; [14]): ≥ 40.8 µM

GEGGVGSIL
Kd (HLA-B*40:01; source organism: Mycobacterium tuberculosis): 0.033 µM

GLYKSINVE
IC50 (HLA-A*02:01 [3]; [9]): 39.5 µM

GMSRIGMEV
Kd (HLA-A*02:01 [2]; source organism: SARS-CoV1): 0.0016 µM

GVVTKSGDY
Kd (HLA-A*26:01; [15]): 2.42 µM | Kd (HLA-A*30:02; [15]): 0.98 µM

GVVTRSGAY
Kd (HLA-A*26:01; [8]): 0.836 µM | Kd (HLA-A*30:02; [8]): 0.00928 µM

HAKSQCRPS
Kd (HLA-A*30:01; [11]): 0.854 µM

HVFFSEYIV
Kd (HLA-A*30:01; [9]): 0.883 µM

HVTRGAVLMY
Kd (HLA-A*26:01; [7]): 0.233 µM

IITASILLWY
Kd (HLA-A*01:01; [8]): 0.0932 µM

ILGTVSWNL
Kd (HLA-A*02:01 [4]; source organism: SARS-CoV1): 0.382 µM | Kd (HLA-A*69:01; source organism: SARS-CoV1): ≥ 22.9 µM | Kd (HLA-B*58:01): 0.804 µM

IMAILCVPNA
Kd (HLA-A*30:01; [8]): 0.045 µM

ITDFAGKTV
Kd (HLA-A*01:01; [12]): ≥ 20.3 µM

IVQPENLEY
Kd (HLA-A*01:01; [16]): 0.512 µM | Kd (HLA-A*30:02; [16]): 0.11 µM

IVQYENLKY
Kd (HLA-A*01:01; [7]): 5.95 µM | Kd (HLA-A*30:02; [7]): 0.191 µM

KHKIFSPFK
Kd (HLA-A*30:01; [9]): 0.000886 µM

KIGDFGLATV
IC50 (HLA-A*02:01 [3]; source organism: Homo sapiens): 0.04 µM

KLSNAKWLA
Kd (HLA-A*02:01 [4]; [17]): 0.413 µM | Kd (HLA-A*31:01; [17]): 1.63 µM | Kd (HLA-B*15:01; [17]): 1.63 µM

KMNNDVFFM
Kd (HLA-A*02:01 [4]; [18]): 0.0023 µM | Kd (HLA-A*69:01; [18]): 0.618 µM

KRLEELLPA
IC50 (HLA-A*02:01 [3]; [10]): ≥ 683 µM

KSHAIYWDK
Kd (HLA-A*30:01; [9]): 0.0105 µM

KSKSRRLNL
Kd (HLA-A*30:01; [9]): 0.0126 µM

KTSHAKVLV
Kd (HLA-A*30:01; [9]): 0.0709 µM

KVKKKYAIG
Kd (HLA-A*30:01; [9]): 0.00155 µM

KYWRQMIIK
Kd (HLA-A*03:01 [5]): ≥ 20 µM | Kd (HLA-A*31:01; source organism: Entamoeba histolytica HM-1:IMSS): 0.0249 µM

LAGVSLLPVC
Kd (HLA-A*30:01; [12]): 15.9 µM

LFSGVSWVM
Kd (HLA-A*24:02; [12]): 0.105 µM

LNASQYANC
IC50 (HLA-A*02:01 [3]; [11]): ≥ 1400 µM

LNGAMVEYV
IC50 (HLA-A*02:01 [3]; [11]): 29.1 µM

LQKVPHTRY
Kd (HLA-A*31:01; [19]): 17.2 µM | Kd (HLA-B*15:01; [19]): 0.476 µM

LSEKEENMV
Kd (HLA-A*01:01; [15]): 6.47 µM

LSLLQLPRD
IC50 (HLA-A*02:01 [3]; source organism: Sudan ebolavirus): ≥ 173 µM

LTLKPCHAL
Kd (HLA-A*02:01 [4]; source organism: Brucella suis): 4.76 µM | Kd (HLA-A*11:01; source organism: Brucella suis): 18 µM | Kd (HLA-A*69:01; source organism: Brucella suis): 0.546 µM | Kd (HLA-B*07:02; source organism: Brucella suis): 1.96 µM
